B1: HER2-TCB containing the parental CD3 binder P1AH4929 / CD3orig (bispecific antibody, human IgG1, kappa, L234A L235A)
heavy 1: not shown
heavy 2: not shown
light 1: EVQLLESGGGLVQPGGSLRLSCAASGFTFSSYAMNWVRQAPGKGLEWVSRIRSKYNNYATYYADSVKGRFTISRDDSKNTLYLQMNSLRAEDTAVYYCVRASNFPASYVSYFAYWGQGTLVTVSSASVAAPSVFIFPPSDEQLKSGTASVVCLLNNFYPREAKVQWKVDNALQSGNSQESVTEQDSKDSTYSLSSTLTLSKADYEKHKVYACEVTHQGLSSPVTKSFNRGEC
light 2: not shown
notes: 2+1 IgG CrossFab, inverted: VH/VL exchange in the CD3 Fab, charge modifications in the two HER2 Fabs, knob-into-hole and P329G LALA in the Fc; also called PIAH4929
B2: HER2-TCB containing the optimized CD3 binder P1AI7912 (bispecific antibody, human IgG1, kappa, L234A L235A)
heavy 1: not shown
heavy 2: not shown
light 1: EVQLLESGGGLVQPGGSLRLSCAASGFTFSSYAMNWVRQAPGKGLEWVGRVRTTYNNREPYYADSVKGRFTISRDDSKNTLYLQMNSLRAEDTAVYYCVRASNFPASYVSYFAYWGQGTLVTVSSASVAAPSVFIFPPSDEQLKSGTASVVCLLNNFYPREAKVQWKVDNALQSGNSQESVTEQDSKDSTYSLSSTLTLSKADYEKHKVYACEVTHQGLSSPVTKSFNRGEC
light 2: not shown
notes: 2+1 IgG CrossFab, inverted: VH/VL exchange in the CD3 Fab, charge modifications in the two HER2 Fabs, knob-into-hole and P329G LALA in the Fc; also called P1AI7912 (in TCB format)
B3: HER2-TCB containing the optimized CD3 binder P1AI7913 (bispecific antibody, human IgG1, kappa, L234A L235A)
heavy 1: not shown
heavy 2: not shown
light 1: EVQLLESGGGLVQPGGSLRLSCAASGFTFSSYAMNWVRQAPGKGLEWVGRVRTKYNNREPYYADSVKGRFTISRDDSKNTLYLQMNSLRAEDTAVYYCVRASNFPASYVSYFAYWGQGTLVTVSSASVAAPSVFIFPPSDEQLKSGTASVVCLLNNFYPREAKVQWKVDNALQSGNSQESVTEQDSKDSTYSLSSTLTLSKADYEKHKVYACEVTHQGLSSPVTKSFNRGEC
light 2: not shown
notes: 2+1 IgG CrossFab, inverted: VH/VL exchange in the CD3 Fab, charge modifications in the two HER2 Fabs, knob-into-hole and P329G LALA in the Fc; also called P1AI7913 (in TCB format)
B4: HER2-TCB containing the optimized CD3 binder P1AI7915 (bispecific antibody, human IgG1, kappa, L234A L235A)
heavy 1: not shown
heavy 2: not shown
light 1: EVQLLESGGGLVQPGGSLRLSCAASGFTFSSYAMNWVRQAPGKGLEWVGRQRTQYNNREDYYADSVKGRFTISRDDSKNTLYLQMNSLRAEDTAVYYCVRASNFPASYVSYFAYWGQGTLVTVSSASVAAPSVFIFPPSDEQLKSGTASVVCLLNNFYPREAKVQWKVDNALQSGNSQESVTEQDSKDSTYSLSSTLTLSKADYEKHKVYACEVTHQGLSSPVTKSFNRGEC
light 2: not shown
notes: 2+1 IgG CrossFab, inverted; also called P1AI7915 (in TCB format)

Tests used:
[1] = biological target: T1, Biotinylated cynomolgus CD3ε stalk-Fc (knob)-Avi / CD3δ stalk-Fc (hole) (cynomolgus, biotinylated); test: SPR (Biacore T200), biotinylated CD3ε/δ-Fc on SA chip, TCB as analyte, 25 °C, 1:1 fit
T1 construct: Heterodimer of CD3 epsilon and CD3 delta ectodomains fused to Fc knob/hole; also called cynomolgus CD3ε/δ; cyno CD3
Experimental: (§1) CD3 binding was investigated using surface plasmon resonance (SPR) on a Biacore T200 instrument (Cytiva). All experiments were performed at 25° C. using HEPES buffered saline (20 mM HEPES, 140 mM NaCl, 0.05% PS-20) pH 7.4. The experimental setup is schematically depicted in FIG. 3.
(§2) Biotinylated human and cynomolgus CD3ε stalk-Fc (knob)-Avi/[…] stalk-Fc (hole) (CD3E/8, see SEQ ID NOs 49 and 50 (human) and SEQ ID NOs 51 and 52 (cynomolgus)) were coupled to a Series S Sensor Chip SA (Cytiva, #29104992) according to the manufacturer's instructions. A concentration series ranging from 0.37 to 300 nM (1:3) of the TCB antibody molecules were injected with 90 s association time, followed by a buffer wash of 300 s for monitoring the dissociation phase. Bulk refractive index differences were corrected by subtracting the response obtained from a mock surface. Blank injections were subtracted (double referencing). Kinetic constants were derived using the Biacore T200 Evaluation Software (Cytiva), to fit rate equations for 1:1 Langmuir binding by numerical integration. The half-life (t_{1/2}) of the interaction was calculated using the formula t_{1/2}=ln2/koff.

[2] = biological target: T2, Biotinylated human CD3ε stalk-Fc (knob)-Avi / CD3δ stalk-Fc (hole) (human, biotinylated); test: as above
T2 construct: also called human CD3ε/δ
Experimental: as §1, §2

Gelatine (2%) = test: polyreactivity ELISA, coated antigen 1 µg/ml, TCB 1 µg/ml
Experimental: (§3) Polyreactivity was tested using an ELISA-based read out. A set of different antigens depicted in Table 9 was coated on a Nunc MaxiSorp microtiter plate (Fisher Scientific) overnight at 4° C. with a concentration of 1 μg/ml in Dulbecco's phosphate buffered saline (DPBS, PAN Biotech #P04-36500) each. After washing the plate two times using PBS (Roche Diagnostics #11666789001) containing 0.1% Tween-20, plates were blocked with DPBS, 2% bovine serum albumin (BSA, Roche Diagnostics #10735108001) for 1 hour at room temperature. After washing the plate three times, the HER2 TCBs were added with a concentration of 1 μg/ml diluted in DPBS and incubated for 1 hour at room temperature. Subsequently, plates were washed three times and an anti-human IgG F(ab′)2-HRP (Jackson ImmunoResearch #109-036-006) diluted 1:5000 in PBS, 0.5% BSA, 0.05% Tween-20 was added. After incubation for 1 hour at room temperature and washing for four times, TMB substrate (Sigma-Aldrich #T0440) was added and absorption was measured at 370/492 nm.

HSP90 = test: as above
Experimental: as §3

Hemocyanin = test: as above
Experimental: as §3

Insulin = test: as above
Experimental: as §3

Bovine Serum Albumin [3] = biological target: T3, Bovine Serum Albumin (bovine, UniProt P02769 25-607); test: as above
T3 construct: also called BSA
Experimental: as §3

Streptavidin [4] = biological target: T4, Streptavidin (UniProt P22629 37-163, limits assumed); test: as above
Experimental: as §3

[5] = biological target: human CD3ε (coated antigen of the polyreactivity ELISA) (human, UniProt P07766 23-126, limits assumed); test: as above
Experimental: as §3

Apolipoprotein A-1 = test: as above
Experimental: as §3

Histone H4 aa2-24 [6] = biological target: T5, Histone H4 aa2-24 (UniProt P62805 2-24); test: as above
T5 construct: range 2-24
Experimental: as §3

Bovine Serum Albumin [7] = biological target: T3, Bovine Serum Albumin; test: polyreactivity ELISA, coated antigen
Experimental: as §3

Streptavidin [8] = biological target: T4, Streptavidin; test: polyreactivity ELISA, coated antigen
Experimental: as §3

Histone H4 aa2-24 [9] = biological target: T5, Histone H4 aa2-24; test: polyreactivity ELISA, coated antigen
Experimental: as §3

[10] = biological target: T6, Human CD3 on Jurkat NFAT reporter cells (human, UniProt P07766 23-207); test: flow cytometry on CD3-expressing Jurkat NFAT reporter cells, PE-conjugated anti-human IgG Fc secondary antibody, median fluorescence intensity
T6 construct: CD3 complex on the cell surface; also called CD3 on Jurkat cells; CD3 antigen (expressed on Jurkat-NFAT reporter cells)
Experimental: The antibody staining was performed in a 96-well round bottom plate. Therefore 200′000 cells were seeded per well.

T2 sequence (chain, as listed by the source mutant limits assumed, chain 1 of 2): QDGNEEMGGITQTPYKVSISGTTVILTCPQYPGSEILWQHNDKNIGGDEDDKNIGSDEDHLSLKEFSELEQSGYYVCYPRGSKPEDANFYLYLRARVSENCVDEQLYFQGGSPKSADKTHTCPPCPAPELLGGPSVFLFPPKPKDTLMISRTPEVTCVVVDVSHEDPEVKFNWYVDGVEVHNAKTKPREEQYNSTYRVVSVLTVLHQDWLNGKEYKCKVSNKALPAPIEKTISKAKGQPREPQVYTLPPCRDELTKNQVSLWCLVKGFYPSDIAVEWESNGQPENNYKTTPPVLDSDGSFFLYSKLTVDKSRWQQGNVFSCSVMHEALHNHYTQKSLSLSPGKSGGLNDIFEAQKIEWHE
T2 sequence (chain, as listed by the source mutant limits assumed, chain 2 of 2): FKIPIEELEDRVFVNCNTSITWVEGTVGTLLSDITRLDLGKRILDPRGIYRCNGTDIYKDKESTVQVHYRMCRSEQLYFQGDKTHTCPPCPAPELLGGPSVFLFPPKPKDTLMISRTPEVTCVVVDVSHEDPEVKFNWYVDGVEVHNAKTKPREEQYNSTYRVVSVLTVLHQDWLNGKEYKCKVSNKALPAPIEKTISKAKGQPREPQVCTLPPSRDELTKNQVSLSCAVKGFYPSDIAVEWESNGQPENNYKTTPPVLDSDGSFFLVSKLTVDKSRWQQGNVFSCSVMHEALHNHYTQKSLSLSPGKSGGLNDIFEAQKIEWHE
T4 sequence (P22629 37-163 limits assumed): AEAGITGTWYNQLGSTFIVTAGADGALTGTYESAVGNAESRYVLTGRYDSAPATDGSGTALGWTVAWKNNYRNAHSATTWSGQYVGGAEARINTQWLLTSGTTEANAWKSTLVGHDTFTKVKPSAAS
Chain of human CD3ε (coated antigen of the polyreactivity ELISA) (P07766 23-126 limits assumed): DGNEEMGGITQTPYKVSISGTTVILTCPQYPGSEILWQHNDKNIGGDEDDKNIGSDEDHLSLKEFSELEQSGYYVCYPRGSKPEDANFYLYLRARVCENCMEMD
Chain of Apolipoprotein A-1 (P02647 25-267): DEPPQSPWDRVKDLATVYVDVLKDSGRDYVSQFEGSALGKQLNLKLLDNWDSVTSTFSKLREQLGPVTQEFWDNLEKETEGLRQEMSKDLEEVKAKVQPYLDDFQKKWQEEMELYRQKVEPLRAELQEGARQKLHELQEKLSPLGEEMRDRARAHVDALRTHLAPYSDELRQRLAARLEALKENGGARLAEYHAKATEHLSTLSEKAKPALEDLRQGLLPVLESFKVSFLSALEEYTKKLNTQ
T1 sequence (chain, as listed by the source mutant limits assumed, chain 1 of 2): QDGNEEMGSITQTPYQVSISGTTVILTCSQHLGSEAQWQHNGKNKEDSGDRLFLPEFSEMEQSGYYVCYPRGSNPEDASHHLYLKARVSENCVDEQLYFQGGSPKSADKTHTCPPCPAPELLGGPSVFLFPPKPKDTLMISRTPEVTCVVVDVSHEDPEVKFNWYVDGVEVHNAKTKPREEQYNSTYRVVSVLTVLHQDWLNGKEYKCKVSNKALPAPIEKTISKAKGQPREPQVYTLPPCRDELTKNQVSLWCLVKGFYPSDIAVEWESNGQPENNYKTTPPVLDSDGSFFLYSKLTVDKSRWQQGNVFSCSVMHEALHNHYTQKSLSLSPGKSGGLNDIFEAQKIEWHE
T1 sequence (chain, as listed by the source mutant limits assumed, chain 2 of 2): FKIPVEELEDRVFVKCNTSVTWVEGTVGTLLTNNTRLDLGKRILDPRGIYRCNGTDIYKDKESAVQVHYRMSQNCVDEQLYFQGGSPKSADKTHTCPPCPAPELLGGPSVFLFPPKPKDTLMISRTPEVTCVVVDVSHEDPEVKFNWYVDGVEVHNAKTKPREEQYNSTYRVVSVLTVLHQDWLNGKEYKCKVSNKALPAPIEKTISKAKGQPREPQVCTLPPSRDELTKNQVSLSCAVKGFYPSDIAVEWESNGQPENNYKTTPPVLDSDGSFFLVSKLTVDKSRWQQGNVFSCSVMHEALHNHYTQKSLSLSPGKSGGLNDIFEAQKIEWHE
T3 sequence (P02769 25-607 limits assumed): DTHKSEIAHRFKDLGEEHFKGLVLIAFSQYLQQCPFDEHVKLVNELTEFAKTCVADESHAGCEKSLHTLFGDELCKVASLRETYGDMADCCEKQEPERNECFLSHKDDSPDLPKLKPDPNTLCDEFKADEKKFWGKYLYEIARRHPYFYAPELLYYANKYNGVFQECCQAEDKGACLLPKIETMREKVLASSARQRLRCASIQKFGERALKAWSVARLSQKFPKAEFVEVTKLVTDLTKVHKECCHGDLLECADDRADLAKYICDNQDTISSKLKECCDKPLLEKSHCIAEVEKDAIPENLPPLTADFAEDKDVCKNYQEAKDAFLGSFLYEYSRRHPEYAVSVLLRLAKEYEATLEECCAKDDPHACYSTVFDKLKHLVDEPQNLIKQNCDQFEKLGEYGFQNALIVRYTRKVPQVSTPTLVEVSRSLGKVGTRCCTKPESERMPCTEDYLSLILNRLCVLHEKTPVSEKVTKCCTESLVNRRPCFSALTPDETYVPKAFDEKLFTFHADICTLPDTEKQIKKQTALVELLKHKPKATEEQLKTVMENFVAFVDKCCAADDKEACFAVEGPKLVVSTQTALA
T6 sequence (P07766 23-207 limits assumed): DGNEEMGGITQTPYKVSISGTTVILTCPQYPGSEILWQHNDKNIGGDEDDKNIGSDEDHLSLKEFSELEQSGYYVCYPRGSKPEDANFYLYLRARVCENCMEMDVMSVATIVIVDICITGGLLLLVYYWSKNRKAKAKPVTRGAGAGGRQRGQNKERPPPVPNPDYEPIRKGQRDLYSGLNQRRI

| Binder | Kd [1] | t1/2 [1] | Kd [2] | t1/2 [2] | Absorbance (OD) (Gelatine (2%)) | Absorbance (OD) (HSP90) | Absorbance (OD) (Hemocyanin) | Absorbance (OD) (Insulin) | Absorbance (OD) (Bovine Serum Albumin [3]) | Absorbance (OD) (Streptavidin [4]) | Absorbance (OD) [5] | Absorbance (OD) (Apolipoprotein A-1) | Absorbance (OD) (Histone H4 aa2-24 [6]) | binding result (Bovine Serum Albumin [7]) | binding result (Streptavidin [8]) | binding result (Histone H4 aa2-24 [9]) | EC50 (read off the curve) [10] |
| --- | --- | --- | --- | --- | --- | --- | --- | --- | --- | --- | --- | --- | --- | --- | --- | --- | --- |
| B1 | 0.2 nM | 519 s | 0.2 nM | 529 s | -0.01 OD | 0.02 OD | 0.02 OD | 0.01 OD | 0 OD | 0 OD | 2.87 OD | 0 OD | 0.05 OD | no binding (tested: 1 µg/ml) | no binding (tested: 1 µg/ml) | no binding (tested: 1 µg/ml) | ~6 nM |
| B2 | 11.3 nM | 11 s | 12.6 nM | 11 s | -0.01 OD | 0.07 OD | 0.02 OD | 0.02 OD | 0 OD | 0 OD | 2.2 OD | 0.01 OD | 0 OD | no binding (tested: 1 µg/ml) | no binding (tested: 1 µg/ml) | no binding (tested: 1 µg/ml) |  |
| B3 | 1.3 nM | 81 s | 1.5 nM | 81 s | 0.01 OD | 0.03 OD | 0.07 OD | 0.04 OD | 0.01 OD | 0.01 OD | 2.83 OD | 0.01 OD | 0.06 OD | no binding (tested: 1 µg/ml) | no binding (tested: 1 µg/ml) | no binding (tested: 1 µg/ml) |  |
| B4 | 9.7 nM | 31 s | 11.5 nM | 30 s | 0.01 OD | 0.07 OD | 0.08 OD | 0.04 OD | 0.01 OD | 0 OD | 2.99 OD | 0.01 OD | 0.07 OD | no binding (tested: 1 µg/ml) | no binding (tested: 1 µg/ml) | no binding (tested: 1 µg/ml) |  |

From patent US20250092136A1 (Hoffmann-La Roche, published 2025)
